Paper PMC9974510, “Structure of metallochaperone in complex with the cobalamin-binding domain of its target mutase provides insight into cofactor delivery” (Proceedings of the National Academy of Sciences of the …, 2023)

B1: MeaB from Methylobacterium extorquens (natural protein, UniProt Q8RPA0 1-329, looked up)
chain: MSATLPDMDTLRERLLAGDRAALARAITLAESRRADHRAAVRDLIDAVLPQTGRAIRVGITGVPGVGKSTTIDALGSLLTAAGHKVAVLAVDPSSTRTGGSILGDKTRMARLAIDRNAFIRPSPSSGTLGGVAAKTRETMLLCEAAGFDVILVETVGVGQSETAVADLTDFFLVLMLPGAGDELQGIKKGILELADMIAVNKADDGDGERRASAAASEYRAALRILTPPSATWTPPVVTISGLHGKGLDSLWSRIEGHRSKLTATGEIAGKRREQDVKWMWALVHERLHQRLVGSAEVRQATAEAERAVAGGEHSPAAGADAIATLIGL
notes: MeaB, G-protein chaperone of methylmalonyl-CoA mutase, Methylobacterium extorquens, WP_003597297.1; 329 residues (Met1 to Leu329 of 329 named in the model of chain B); Synthetic gene in pET28a at NdeI and XhoI; also called G-protein metallochaperone MeaB; source: E. coli Bl21 T7 Express, purified (Ni-NTA, Superdex 200 SEC)

Columns and labels:
[1] = molecular target: B1; assay: cell-based or functional assay
[2] = molecular target: the molecule itself; assay: SEC; analytical Superdex200 Increase 10/300 GL; each protein alone (50 µM MeaB); apparent molecular weights against gel filtration standards; 50 mM HEPES pH 7.5, 500 mM NaCl
[3] = molecular target: B1; assay: SEC; analytical Superdex200 Increase 10/300 GL; 50 µM MeaB and 100 µM MeMCMcbl preincubated with 500 µM GMPPCP and 1 mM MgCl2; 50 mM HEPES pH 7.5, 500 mM NaCl; peaks identified by SDS-PAGE; conditions: both partners purified

Binder | GTPase activity of MeaB (2 µM) with MeMCMcbl (4 µM), 500 µM GTP: inorganic phosphate produced, against MeaB alone [1] | stoichiometry N [2] | stoichiometry N [3]
Cbl-binding domain of the alpha subunit of Methylobacterium extorquens methylmalonyl-CoA mutase (domain or fragment, UniProt C5AV67 545-712, looked up, alpha subunit has 712 residues; Two constructs were made (N-terminal HisTag, of low solubility; C-terminal HisTag in pET28a at NcoI and XhoI); The crystal holds the C-terminal HisTag form (residues 713 to 714 of the tag modelled in chain C); the same form is surmised for the SEC and GTPase experiments; also called MeMCMcbl; MCMcbl; source: E. coli Bl21 T7 Express, purified (Ni-NTA, Superdex75 …)) RAQIRSISGVYKREVGGMSPVVEKVRGLVEAFEENDGRRPRILVAKMGQDGHDRGQKVIASAFADLGFDVDIGPLFATPDEAARQAVENDVHIVGVSSLAAGHLTLVPELKAALKQEGRDDVMIVVGGVIPPGDYDALYAAGASAIFPPGTVIAEAAVNLLGELNTRL | 25 fold | 2 | 1 MeMCMcbl dimer per MeaB dimer
B1 |  | 2 | 
